Test results taken from paper PMC6824681, “Phosphoproteomics reveals that the hVPS34 regulated SGK3 kinase specifically phosphorylates endosomal proteins including Syntaxin-7, Syntaxin-12, RFIP4 and WDR44” (Biochemical Journal, 2019).

T1: GFP-STX12 wild type (Syntaxin-12) (human, UniProt Q86Y82 1-276)
T1 construct: Syntaxin-12 (STX12), human; After IGF1 stimulation about 20% of the stably expressed protein was phosphorylated (Ser139) by phos-tag analysis; also called GFP-STX12 WT; wild-type STX12
T1 sequence (looked up): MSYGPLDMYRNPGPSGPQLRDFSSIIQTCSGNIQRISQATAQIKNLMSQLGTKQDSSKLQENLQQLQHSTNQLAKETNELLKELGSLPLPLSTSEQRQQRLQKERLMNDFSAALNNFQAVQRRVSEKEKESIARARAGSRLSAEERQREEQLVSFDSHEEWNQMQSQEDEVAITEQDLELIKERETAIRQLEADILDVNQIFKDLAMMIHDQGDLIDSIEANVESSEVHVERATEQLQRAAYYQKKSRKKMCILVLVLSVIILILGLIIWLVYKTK

B1: VAMP4 (natural protein, human (endogenous in HEK293), UniProt O75379 1-141, looked up)
chain: MPPKFKRHLNDDDVTGSVKSERRNLLEDDSDEEEDFFLRGPSGPRFGPRNDKIKHVQNQVDEVIDVMQENITKVIERGERLDELQDKSESLSDNATAFSNRSKQLRRQMWWRGCKIKAIMALVAAILLLVIIILIVMKYRT
notes: VAMP4, endogenous in HEK293 cells, detected by immunoblot with anti-VAMP4; also called v-SNARE protein VAMP4; source: endogenous, HEK293 lysate
B2: Syntaxin 6 (STX6) (natural protein, human (endogenous in HEK293), UniProt O43752 1-255, looked up)
chain: MSMEDPFFVVKGEVQKAVNTAQGLFQRWTELLQDPSTATREEIDWTTNELRNNLRSIEWDLEDLDETISIVEANPRKFNLDATELSIRKAFITSTRQVVRDMKDQMSTSSVQALAERKNRQALLGDSGSQNWSTGTTDKYGRLDRELQRANSHFIEEQQAQQQLIVEQQDEQLELVSGSIGVLKNMSQRIGGELEEQAVMLEDFSHELESTQSRLDNVMKKLAKVSHMTSDRRQWCAIAILFAVLLVVLILFLVL
notes: Syntaxin-6 (STX6), endogenous in HEK293 cells, detected by immunoblot with anti-STX6; source: endogenous, HEK293 lysate
B3: VTI1A (natural protein, human (endogenous in HEK293), UniProt Q96AJ9 1-217, looked up)
chain: MSSDFEGYEQDFAVLTAEITSKIARVPRLPPDEKKQMVANVEKQLEEAKELLEQMDLEVREIPPQSRGMYSNRMRSYKQEMGKLETDFKRSRIAYSDEVRNELLGDDGNSSENQRAHLLDNTERLERSSRRLEAGYQIAVETEQIGQEMLENLSHDREKIQRARERLRETDANLGKSSRILTGMLRRIIQNRILLVILGIIVVITILMAITFSVRRH
notes: Vti1a (VTI1A), endogenous in HEK293 cells, detected by immunoblot with anti-VTI1A; source: endogenous, HEK293 lysate

What follows are binders tested against T1, GFP-STX12 wild type (Syntaxin-12) (assay: co-IP; GFP-STX12 WT or S139A immunoprecipitated from 2 mg lysate with GFP-Trap beads, 4°C, 4 h; two washes with lysis buffer with 0.45 M NaCl, one with 0.15 M NaCl; immunoblot of endogenous partners; cells serum-starved overnight, ± 14H (1 µM, 1 h), ± IGF1 (50 ng/ml, 15 min)). Conditions: partners not purified.

| fold increase of the amount co-immunoprecipitated, IGF1-stimulated against unstimulated cells | Binder |
| --- | --- |
| ~2 fold | B1 |
| ~2 fold | B2 |
| ~2 fold | B3 |
